Results published in paper PMC4499147, “Modulation of LSD1 phosphorylation by CK2/WIP1 regulates RNF168-dependent 53BP1 recruitment in response to DNA damage” (Nucleic Acids Research, 2015).

Key:
[1] = biological target: bacterially produced HIS-LSD1 (human, UniProt O60341 1-852); assay: pull-down; GST fusion (1 μg) with HIS-tagged fusion (1 μg) in 500 μl NETN buffer (20 mM Tris-HCl pH 8.0, 0.15 M NaCl, 1 mM EDTA, 0.5% NP-40) at 4°C overnight; Glutathione-Sepharose beads; details: both partners purified
[2] = biological target: T1, bacterially produced HIS-RNF168 (human, UniProt Q8IYW5 1-571); assay: as above; details: both partners purified
T1 construct: E3 ligase RNF168, human; the bacterial construct is not described; source: bacterially produced

binding result [1]: binds
binding result [2]: binds
B1: bacterially produced GST-53BP1-KBD (domain or fragment, human, UniProt Q12888 1234-1616, looked up)
chain: HVLHRHMRTIREVRTLVTRVITDVYYVDGTEVERKVTEETEEPIVECQECETEVSPSQTGGSSGDLGDISSFSSKASSLHRTSSGTSLSAMHSSGSSGKGAGPLRGKTSGTEPADFALPSSRGGPGKLSPRKGVSQTGTPVCEEDGDAGLGIRQGGKAPVTPRGRGRRGRPPSRTTGTRETAVPGPLGIEDISPNLSPDDKSFSRVVPRVPDSTRRTDVGAGALRRSDSPEIPFQAAAGPSDGLDASSPGNSFVGLRVVAKWSSNGYFYSGKITRDVGAGKYKLLFDDGYECDVLGKDILLCDPIPLDTEVTALSEDEYFSAGVVKGHRKESGELYYSIEKEGQRKWYKRMAVILSLEQGNRLREQYGLGPYEAVTPLTKAAD
notes: The limits 1234-1616 are printed for the 53BP1-KBD cDNA clone put into pcDNA3.0; the bacterial construct itself is not described; source: bacterially produced
